Values of other authors, collected in publication PMC6359176.

Biological target: α-synuclein preformed fibrils (Homo sapiens) (UniProt P37840)

Kd: 77 nM
Substance: LAG3 (from UniProt Q61790)
